From US20240352445A1 (ABWIZ BIO, published 2024) come the findings set out here.

Changes are numbered by the printed parent chain.

The experiment has as its target SARS-CoV-2 spike protein trimer, wild type (SARS-CoV-2, UniProt P0DTC2 16-1213). Put plainly: ELISA, purified IgG.

B1: SEQ ID NO 12 (antibody, V domains shown)
VH: EVQLVESGGGLVQPGGSLRLSCTVSGFSLSTYAMSWVRQAPGKGLEWIGVIASNADTYYASWAKGRFTISRDNSKNTLYLQMNSLRAEDTAVYYCARHPGSAGYGYAVYYAMDPWGQGTLVTVSS
VL: DIQMTQSPSSLSASVGDRVTITCQASQPIHYAINWYQQKPGKAPKLLIYGTSHRKMGVPSRFSGSGSGTDYTLTISSLQPEDFATYYCQQGYIVALKFGGGTKVEIK
notes: also called selected clone from LxC libraries; LxC clone
In the case of B1, the binding result is recorded as “binds”.

B2: SEQ ID NO 17 (antibody, V domains shown)
VH: B1 VH
VL: DIQMTQSPSSLSASVGDRVTITCQASQPIYYGINWYQQKPGKAPKLLIYGHTYRAWGVPSRFSGSGSGTDFTLTISSLQPEDFATYYCQQGYRVGLGFGGGTKVEIK
notes: As m4
Consider B2, for which the binding result is “binds”.

B3: SEQ ID NO 18 (antibody, V domains shown)
VH: B1 VH
VL: DIQMTQSPSSLSASVGDRVTITCKASEDIRYGLNWYQQKPGKAPKLLIYGGSYLRWGVPSRFSGSGSGTDYTLTISSLQPEDFATYYCQQGYRVPIRFGGGTKVEIK
notes: As m4; also called selected clone from LxC libraries; LxC clone
For the molecule B3, the binding result was “binds”.

B4: SEQ ID NO 15 (antibody, V domains shown)
VH: B1 VH
VL: B1 VL with P28K, H53Y, R54L, K55G, M56G, Y71F, A95P, L96N, K97S
notes: As m4
Consider B4, for which the binding result is “binds”.

B5: SEQ ID NO 16 (antibody, V domains shown)
VH: B1 VH
VL: B1 VL with P28D, I29V, H30K, H53S, K55G, M56E, I93V, A95S, L96I, K97F
notes: As m4
As to B5, the binding result is recorded as “binds”.
